{"source": "patent US20200108091A1", "about": "“GUT-PROTECTIVE EFFECT OF RIG-1/MAVS AND STING ACTIVATION” (MEMORIAL SLOAN-KETTERING CANCER CENTER, priority 2017, published 2020)", "tested_on": "small intestinal organoids", "assay": "Ex vivo organoid culture of small intestine crypts", "assay_type": "cell-based, mouse", "procedure": "Isolation of intestinal epithelial crypts was performed as previously described (26). Briefly, after harvesting small intestines, the organs were opened longitudinally and washed. Small intestine was incubated in 10 mM ethylenediamine-tetraacetatic acid (EDTA) for 25 min (4° C.) to dissociate the crypts. The supernatant containing crypts was collected.\n250 crypts per well were suspended in growth factor reduced Matrigel (Corning) (33% ENR-medium; 66% growth factor reduced Matrigel) at 4° C. Then, they were plated in delta-surface Nunc 24-well plates in 30 μL drops, each containing approximately 250 crypts. […]\nTo determine the effect of 3pRNA/interferon stimulatory DNA/rmIFN-β on organoid size and morphology, bright-field microscopy images were taken using a Zeiss Axiovision Observer microscope with a 5× objective lens after 5 or 7 days in culture. 2D area and perimeter were analyzed using border perimeter tracing of organoids found in four representative fields of each well using Image J software. For assessment of gene expression by quantitative (q) PCR, organoids were subjected to RNA extraction 24 hours after culture using Trizol reagent (Invitrogen) according to manufacturer's protocol. Isolated RNA was reverse-transcribed using the Quantitect Reverse Transcription Kit (Qiagen). […]"}
{"molecule": "recombinant IFN-β: recombinant murine (rm) IFN-β (20 U/ml; PBL (12400-1)) (protein, UniProt P01575 22-182, looked up) Interferon beta: INYKQLQLQERTNIRKCQELLEQLNGKINLTYRADFKIPMEMTEKMQKSYTAFAIQEMLQNVFLVFRNNFSSTGWNETIVVRLLDELHQQTVFLKTVLEEKQEERLTWEMSSTALHLKSYYWRVQRYLKLMKYNSYAWMVVRAEIFRNFLIIRRLTRNFQN", "values": [{"measurement": "number of organoids", "setting": "7 days in culture, IFN-β 20 U/ml or α-IFNaR1 Ab 10 ug/ml", "value": "Neither recombinant IFN-β nor IFNAR blockade could influence"}, {"measurement": "organoid size", "setting": "recombinant murine IFN-β 20 U/ml, 5 or 7 days in culture", "value": "increased organoid size"}]}
